# US20020185139A1, “Methods for reducing postoperative intraocular pressure” (priority 2001, published 2002)
# Test system: corneal endothelium
# Set-up: species or system rabbits
# Details: rabbit, in vivo
# Excerpt: In order to investigate the effect of hyaluronidase on the postoperative endothelium, the eyes of the rabbits from Experiment 1 were studied by performing vital staining of the corneal endothelium of the rabbits.
substance,measurement,value
hyaluronidase,endothelial damage (vital staining of corneal endothelium),no endothelial damage
